In IntAct's records for PubMed 35512704:

B1: Mothers against decapentaplegic homolog 4 (Homo sapiens), Q13485 (parent)
chain: MDNMSITNTPTSNDACLSIVHSLMCHRQGGESETFAKRAIESLVKKLKEKKDELDSLITAITTNGAHPSKCVTIQRTLDGRLQVAGRKGFPHVIYARLWRWPDLHKNELKHVKYCQYAFDLKCDSVCVNPYHYERVVSPGIDLSGLTLQSNAPSSMMVKDEYVHDFEGQPSLSTEGHSIQTIQHPPSNRASTETYSTPALLAPSESNATSTANFPNIPVASTSQPASILGGSHSEGLLQIASGPQPGQQQNGFTGQPATYHHNSTTTWTGSRTAPYTPNLPHHQNGHLQHHPPMPPHPGHYWPVHNELAFQPPISNHPAPEYWCSIAYFEMDVQVGETFKVPSSCPIVTVDGYVDPSGGDRFCLGQLSNVHRTEAIERARLHIGKGVQLECKGEGDVWVRCLSDHAVFVQSYYLDREAGRAPGDAVHKIYPSAYIKVFDLRQCHRQMQQQAATAQAAAAAQAAAVAGNIPGPGSVGGIAPAISLSAAAGIGVDDLRRLCILRMSFVKGWGPDYPRQSIKETPCWIEIHLHRALQLLDEVLHTMPIADPQPLD

Variants of: B1
Conditions: with etv1_human ETV1, P50549
Sequence of etv1_human ETV1, P50549 (P50549 whole entry): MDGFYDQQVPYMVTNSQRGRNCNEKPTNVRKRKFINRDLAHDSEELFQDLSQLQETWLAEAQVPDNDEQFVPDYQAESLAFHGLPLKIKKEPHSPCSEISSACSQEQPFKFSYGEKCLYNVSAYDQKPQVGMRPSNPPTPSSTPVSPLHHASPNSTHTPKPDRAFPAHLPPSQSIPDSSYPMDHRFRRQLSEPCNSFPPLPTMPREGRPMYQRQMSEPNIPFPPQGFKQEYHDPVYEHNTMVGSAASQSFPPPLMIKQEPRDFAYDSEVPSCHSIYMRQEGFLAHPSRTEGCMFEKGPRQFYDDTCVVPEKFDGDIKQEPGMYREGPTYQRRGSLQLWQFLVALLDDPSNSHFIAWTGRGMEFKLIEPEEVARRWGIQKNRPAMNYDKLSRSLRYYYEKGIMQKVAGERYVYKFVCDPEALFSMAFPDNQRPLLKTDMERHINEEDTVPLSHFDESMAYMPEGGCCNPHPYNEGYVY

| Variant | effect of a mutation on the interaction |
| --- | --- |
| G386D | with no effect |

Variants of: B1
Conditions: with ezh2_human EZH2, Q15910

| Variant | effect of a mutation on the interaction |
| --- | --- |
| G386D | with no effect |

Variants of: B1
Conditions: with fadd_human FADD

| Variant | effect of a mutation on the interaction |
| --- | --- |
| G386D | with no effect |

Variants of: B1
Conditions: with facd2_human FANCD2, Q9BXW9

| Variant | effect of a mutation on the interaction |
| --- | --- |
| G386D | with no effect |

Variants of: B1
Conditions: with tnr6_human FAS

| Variant | effect of a mutation on the interaction |
| --- | --- |
| G386D | with no effect |

Variants of: B1
Conditions: with fgf19_human FGF19, O95750
Sequence of fgf19_human FGF19, O95750 (O95750 whole entry): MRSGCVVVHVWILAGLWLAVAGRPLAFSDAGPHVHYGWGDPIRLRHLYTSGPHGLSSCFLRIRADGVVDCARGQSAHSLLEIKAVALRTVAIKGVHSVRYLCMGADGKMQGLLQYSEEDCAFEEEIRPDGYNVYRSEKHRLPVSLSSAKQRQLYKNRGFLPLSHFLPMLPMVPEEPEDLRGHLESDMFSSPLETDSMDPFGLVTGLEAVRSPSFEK

| Variant | effect of a mutation on the interaction |
| --- | --- |
| G386D | with no effect |

Variants of: B1
Conditions: with fgfr3_human FGFR3, P22607
Sequence of fgfr3_human FGFR3, P22607 (P22607 whole entry, looked up): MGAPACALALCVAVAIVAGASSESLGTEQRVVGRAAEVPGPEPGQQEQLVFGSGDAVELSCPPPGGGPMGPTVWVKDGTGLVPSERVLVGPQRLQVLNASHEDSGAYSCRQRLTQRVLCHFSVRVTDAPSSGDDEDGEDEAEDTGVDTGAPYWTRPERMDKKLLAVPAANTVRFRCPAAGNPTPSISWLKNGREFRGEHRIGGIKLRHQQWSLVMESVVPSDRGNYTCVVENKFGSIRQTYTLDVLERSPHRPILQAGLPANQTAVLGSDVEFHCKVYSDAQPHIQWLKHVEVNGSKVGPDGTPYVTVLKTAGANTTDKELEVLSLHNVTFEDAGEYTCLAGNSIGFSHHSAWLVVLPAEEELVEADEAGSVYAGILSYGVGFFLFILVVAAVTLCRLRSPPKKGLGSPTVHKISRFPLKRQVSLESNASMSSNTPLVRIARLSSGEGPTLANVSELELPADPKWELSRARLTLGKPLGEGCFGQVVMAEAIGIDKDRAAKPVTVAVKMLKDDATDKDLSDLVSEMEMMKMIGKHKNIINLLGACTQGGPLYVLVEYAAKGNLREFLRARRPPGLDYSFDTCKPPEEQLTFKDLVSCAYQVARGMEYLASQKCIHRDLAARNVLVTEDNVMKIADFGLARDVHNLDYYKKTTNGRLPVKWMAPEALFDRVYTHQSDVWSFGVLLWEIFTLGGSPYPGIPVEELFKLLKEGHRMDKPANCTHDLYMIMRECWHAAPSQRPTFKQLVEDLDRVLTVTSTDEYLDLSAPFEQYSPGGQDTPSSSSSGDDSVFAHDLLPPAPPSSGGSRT

| Variant | effect of a mutation on the interaction |
| --- | --- |
| G386D | with no effect |

Variants of: B1
Conditions: with fgfr4_human FGFR4, P22455

| Variant | effect of a mutation on the interaction |
| --- | --- |
| G386D | with no effect |

Variants of: B1
Conditions: with foxo1_human FOXO1, Q12778

| Variant | effect of a mutation on the interaction |
| --- | --- |
| G386D | with no effect |

Variants of: B1
Conditions: with foxo3_human FOXO3, O43524

| Variant | effect of a mutation on the interaction |
| --- | --- |
| G386D | with no effect |

Variants of: B1
Conditions: with gbra6_human GABRA6, Q16445

| Variant | effect of a mutation on the interaction |
| --- | --- |
| G386D | with no effect |

Variants of: B1
Conditions: with gata2_human GATA2, P23769

| Variant | effect of a mutation on the interaction |
| --- | --- |
| G386D | with no effect |

Variants of: B1
Conditions: with gata3_human GATA3, P23771

| Variant | effect of a mutation on the interaction |
| --- | --- |
| G386D | with no effect |

Variants of: B1
Conditions: with gna11_human GNA11, P29992
Sequence of gna11_human GNA11, P29992 (P29992 whole entry): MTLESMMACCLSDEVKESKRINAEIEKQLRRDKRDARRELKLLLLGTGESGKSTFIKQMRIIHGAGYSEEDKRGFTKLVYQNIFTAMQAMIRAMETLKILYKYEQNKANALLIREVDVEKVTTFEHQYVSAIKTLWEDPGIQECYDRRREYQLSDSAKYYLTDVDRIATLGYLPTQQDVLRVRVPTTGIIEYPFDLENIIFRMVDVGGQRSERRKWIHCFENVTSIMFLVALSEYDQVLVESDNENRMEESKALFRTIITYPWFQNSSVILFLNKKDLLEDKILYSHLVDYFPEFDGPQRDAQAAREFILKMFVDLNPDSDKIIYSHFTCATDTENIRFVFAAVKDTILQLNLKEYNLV

| Variant | effect of a mutation on the interaction |
| --- | --- |
| G386D | with no effect |

Variants of: B1
Conditions: with gna13_human GNA13, Q14344
Sequence of gna13_human GNA13, Q14344 (Q14344 whole entry): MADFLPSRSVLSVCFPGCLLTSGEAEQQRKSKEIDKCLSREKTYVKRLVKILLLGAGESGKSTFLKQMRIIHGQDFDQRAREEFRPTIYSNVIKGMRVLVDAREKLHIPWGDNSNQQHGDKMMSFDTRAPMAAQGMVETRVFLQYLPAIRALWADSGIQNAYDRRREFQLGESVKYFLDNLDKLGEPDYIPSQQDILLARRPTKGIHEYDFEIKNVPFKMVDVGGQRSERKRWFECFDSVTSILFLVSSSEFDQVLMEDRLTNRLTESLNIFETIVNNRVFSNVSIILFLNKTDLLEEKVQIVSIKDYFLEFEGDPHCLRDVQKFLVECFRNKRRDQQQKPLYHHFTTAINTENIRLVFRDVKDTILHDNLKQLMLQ

| Variant | effect of a mutation on the interaction |
| --- | --- |
| G386D | with no effect |

Variants of: B1
Conditions: with gnaq_human GNAQ

| Variant | effect of a mutation on the interaction |
| --- | --- |
| G386D | with no effect |

Variants of: B1
Conditions: with grm1_human GRM1, Q13255

| Variant | effect of a mutation on the interaction |
| --- | --- |
| G386D | with no effect |

Variants of: B1
Conditions: with grm3_human GRM3, Q14832

| Variant | effect of a mutation on the interaction |
| --- | --- |
| G386D | with no effect |

Variants of: B1
Conditions: with gsk3a_human GSK3A

| Variant | effect of a mutation on the interaction |
| --- | --- |
| G386D | with no effect |

Variants of: B1
Conditions: with gsk3b_human GSK3B

| Variant | effect of a mutation on the interaction |
| --- | --- |
| G386D | with no effect |

Variants of: B1
Conditions: with hdac1_human HDAC1, Q13547
Sequence of hdac1_human HDAC1, Q13547 (Q13547 whole entry): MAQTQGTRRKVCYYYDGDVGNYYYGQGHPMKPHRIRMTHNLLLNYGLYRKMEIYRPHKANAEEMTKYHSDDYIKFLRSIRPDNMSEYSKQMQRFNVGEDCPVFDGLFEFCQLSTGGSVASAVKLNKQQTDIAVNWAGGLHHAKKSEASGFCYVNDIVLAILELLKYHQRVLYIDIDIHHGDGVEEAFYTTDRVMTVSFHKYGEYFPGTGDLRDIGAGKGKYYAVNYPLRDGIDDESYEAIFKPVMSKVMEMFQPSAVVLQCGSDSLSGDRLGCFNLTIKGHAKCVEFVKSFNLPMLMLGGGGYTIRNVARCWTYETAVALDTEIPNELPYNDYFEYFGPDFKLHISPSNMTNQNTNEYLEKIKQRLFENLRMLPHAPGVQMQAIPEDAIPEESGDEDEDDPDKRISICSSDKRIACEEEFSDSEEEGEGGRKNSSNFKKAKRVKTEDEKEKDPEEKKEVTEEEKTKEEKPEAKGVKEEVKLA

| Variant | effect of a mutation on the interaction |
| --- | --- |
| G386D | with no effect |

Variants of: B1
Conditions: with hdac3_human HDAC3, O15379

| Variant | effect of a mutation on the interaction |
| --- | --- |
| G386D | with no effect |

Variants of: B1
Conditions: with hgf_human HGF

| Variant | effect of a mutation on the interaction |
| --- | --- |
| G386D | with no effect |

Variants of: B1
Conditions: with hif1a_human HIF1A

| Variant | effect of a mutation on the interaction |
| --- | --- |
| G386D | with no effect |

Variants of: B1
Conditions: with h31_human H3C1, P68431

| Variant | effect of a mutation on the interaction |
| --- | --- |
| G386D | with no effect |

Variants of: B1
Conditions: with hlab_human HLA-B

| Variant | effect of a mutation on the interaction |
| --- | --- |
| G386D | with no effect |

Variants of: B1
Conditions: with hnf1a_human HNF1A

| Variant | effect of a mutation on the interaction |
| --- | --- |
| G386D | with no effect |

Variants of: B1
Conditions: with rash_human HRAS

| Variant | effect of a mutation on the interaction |
| --- | --- |
| G386D | with no effect |

Variants of: B1
Conditions: with hs90a_human HSP90AA1, P07900

| Variant | effect of a mutation on the interaction |
| --- | --- |
| G386D | with no effect |

Variants of: B1
Conditions: with igf2_human IGF2, P01344

| Variant | effect of a mutation on the interaction |
| --- | --- |
| G386D | with no effect |

Variants of: B1
Conditions: with il7ra_human IL7R

| Variant | effect of a mutation on the interaction |
| --- | --- |
| G386D | with no effect |

Variants of: B1
Conditions: with int12_human INTS12, Q96CB8

| Variant | effect of a mutation on the interaction |
| --- | --- |
| G386D | with no effect |

Variants of: B1
Conditions: with irf6_human IRF6, O14896

| Variant | effect of a mutation on the interaction |
| --- | --- |
| G386D | with no effect |

Variants of: B1
Conditions: with irs1_human IRS1, P35568

| Variant | effect of a mutation on the interaction |
| --- | --- |
| G386D | with no effect |

Variants of: B1
Conditions: with ist1_human IST1, P53990

| Variant | effect of a mutation on the interaction |
| --- | --- |
| G386D | with no effect |

Variants of: B1
Conditions: with jak1_human JAK1, P23458
Sequence of jak1_human JAK1, P23458 (P23458 whole entry): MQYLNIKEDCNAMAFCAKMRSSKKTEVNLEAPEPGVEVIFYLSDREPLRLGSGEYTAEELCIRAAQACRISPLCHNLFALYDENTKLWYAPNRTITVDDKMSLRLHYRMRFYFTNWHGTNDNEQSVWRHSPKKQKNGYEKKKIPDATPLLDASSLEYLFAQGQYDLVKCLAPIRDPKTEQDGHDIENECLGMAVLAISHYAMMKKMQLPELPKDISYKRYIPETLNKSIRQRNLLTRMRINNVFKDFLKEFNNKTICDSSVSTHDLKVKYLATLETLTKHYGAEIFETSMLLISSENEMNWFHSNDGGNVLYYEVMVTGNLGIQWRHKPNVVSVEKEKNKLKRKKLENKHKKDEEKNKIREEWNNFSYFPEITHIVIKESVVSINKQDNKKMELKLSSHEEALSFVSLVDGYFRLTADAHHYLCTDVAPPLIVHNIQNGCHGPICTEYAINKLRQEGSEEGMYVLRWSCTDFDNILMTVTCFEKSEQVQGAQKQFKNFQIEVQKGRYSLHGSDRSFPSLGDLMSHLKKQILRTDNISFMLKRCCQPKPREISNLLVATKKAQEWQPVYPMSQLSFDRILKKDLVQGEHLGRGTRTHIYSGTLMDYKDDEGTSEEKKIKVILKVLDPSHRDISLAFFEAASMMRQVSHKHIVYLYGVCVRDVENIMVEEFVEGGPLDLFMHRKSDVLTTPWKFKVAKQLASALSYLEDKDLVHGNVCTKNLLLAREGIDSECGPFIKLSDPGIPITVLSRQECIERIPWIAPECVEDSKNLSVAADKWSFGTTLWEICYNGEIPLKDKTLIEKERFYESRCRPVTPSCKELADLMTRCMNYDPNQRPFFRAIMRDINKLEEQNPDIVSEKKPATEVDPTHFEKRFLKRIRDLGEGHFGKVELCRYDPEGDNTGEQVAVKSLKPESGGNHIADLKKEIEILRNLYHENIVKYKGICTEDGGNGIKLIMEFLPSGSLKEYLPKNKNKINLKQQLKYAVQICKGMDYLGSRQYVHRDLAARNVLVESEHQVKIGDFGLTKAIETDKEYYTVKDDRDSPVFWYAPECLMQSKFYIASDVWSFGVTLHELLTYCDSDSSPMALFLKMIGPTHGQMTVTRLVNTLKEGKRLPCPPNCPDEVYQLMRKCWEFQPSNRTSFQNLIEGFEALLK

| Variant | effect of a mutation on the interaction |
| --- | --- |
| G386D | with no effect |

Variants of: B1
Conditions: with jak3_human JAK3, P52333
Sequence of jak3_human JAK3, P52333 (P52333 whole entry): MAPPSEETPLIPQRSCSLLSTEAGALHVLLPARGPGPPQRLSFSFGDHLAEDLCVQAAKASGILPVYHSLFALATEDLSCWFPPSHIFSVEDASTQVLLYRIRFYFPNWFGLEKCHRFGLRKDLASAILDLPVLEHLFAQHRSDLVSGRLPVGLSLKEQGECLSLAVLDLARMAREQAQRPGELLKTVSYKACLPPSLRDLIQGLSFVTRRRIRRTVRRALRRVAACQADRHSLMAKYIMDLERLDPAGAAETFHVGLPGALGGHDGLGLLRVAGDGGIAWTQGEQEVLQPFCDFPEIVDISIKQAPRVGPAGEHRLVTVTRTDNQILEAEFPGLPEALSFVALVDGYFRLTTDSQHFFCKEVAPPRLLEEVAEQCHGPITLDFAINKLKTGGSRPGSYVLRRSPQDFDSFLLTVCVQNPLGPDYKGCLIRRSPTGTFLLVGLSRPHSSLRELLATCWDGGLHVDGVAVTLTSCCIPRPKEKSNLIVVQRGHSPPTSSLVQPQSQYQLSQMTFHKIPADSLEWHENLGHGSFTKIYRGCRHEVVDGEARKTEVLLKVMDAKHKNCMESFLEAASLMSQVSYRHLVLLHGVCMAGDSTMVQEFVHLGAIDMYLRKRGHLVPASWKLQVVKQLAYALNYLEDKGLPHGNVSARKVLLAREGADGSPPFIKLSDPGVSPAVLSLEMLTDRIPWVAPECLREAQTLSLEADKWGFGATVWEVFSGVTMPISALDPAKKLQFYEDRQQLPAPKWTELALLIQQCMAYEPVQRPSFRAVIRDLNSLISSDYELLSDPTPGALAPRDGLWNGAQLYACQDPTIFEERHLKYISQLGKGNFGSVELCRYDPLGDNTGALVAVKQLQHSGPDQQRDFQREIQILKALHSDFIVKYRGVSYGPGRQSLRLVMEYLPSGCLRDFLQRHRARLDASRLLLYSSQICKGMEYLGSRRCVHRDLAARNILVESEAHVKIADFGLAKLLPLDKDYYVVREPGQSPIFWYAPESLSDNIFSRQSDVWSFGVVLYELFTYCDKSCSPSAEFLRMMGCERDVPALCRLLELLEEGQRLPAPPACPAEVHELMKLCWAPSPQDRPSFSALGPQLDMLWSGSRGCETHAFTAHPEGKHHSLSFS

| Variant | effect of a mutation on the interaction |
| --- | --- |
| G386D | with no effect |

Variants of: B1
Conditions: with kat2a_human KAT2A

| Variant | effect of a mutation on the interaction |
| --- | --- |
| G386D | with no effect |

Variants of: B1
Conditions: with kdm5c_human KDM5C

| Variant | effect of a mutation on the interaction |
| --- | --- |
| G386D | with no effect |

Variants of: B1
Conditions: with kdm6a_human KDM6A

| Variant | effect of a mutation on the interaction |
| --- | --- |
| G386D | with no effect |
